Consider two proteins from patent publication US10385116 (OMNIOX, dated 2019).

Data set [1] deals with the molecule itself. Briefly: analytical size exclusion chromatography (Superdex 200 10/300 GL); self-association into a homotrimer.
Data set [2] concerns the molecule itself. The experiment in a line: size exclusion chromatography; self-association of H-NOX+foldon monomers into a homotrimer.

B1: Thermoanaerobacter tengcongensis L144F H-NOX-foldon-His6 fusion protein (monomer unit) (other)
chain: MKGTIVGTWIKTLRDLYGNDVVDESLKSVGWEPDRVITPLEDIDDDEVRRIFAKVSEKTGKNVNEIWREVGRQNIKTFSEWFPSYFAGRRLVNFLMMMDEVHLQLTKMIKGATPPRLIAKPVAKDAIEMEYVSKRKMYDYFLGFIEGSSKFFKEEISVEEVERGEKDGFSRLKVRIKFKNPVFEYKKNLEGSGGYIPEAPRDGQAYVRKDGEWVLLSTFLRGSHHHHHH
modifications: heme (porphyrin IX) cofactor bound non-covalently (so in the source)
notes: 229 amino acids, 26,677 AMU as a monomer; Three of these chains associate through the foldon domain to form the about 80 kDa H-NOX trimer; It is entered as the monomer unit so that the self-association can be written as a pair; also called H-NOX-foldon fusion protein; H-NOX-foldon protein
In the case of B1, in data set [1], the binding result is recorded as “binds”.

B2: H-NOX variant L144F-foldon fusion protein with no His6 tag at the C-terminus (monomer unit of the trimer) (other)
chain: MKGTIVGTWIKTLRDLYGNDVVDESLKSVGWEPDRVITPLEDIDDDEVRRIFAKVSEKTGKNVNEIWREVGRQNIKTFSEWFPSYFAGRRLVNFLMMMDEVHLQLTKMIKGATPPRLIAKPVAKDAIEMEYVSKRKMYDYFLGFIEGSSKFFKEEISVEEVERGEKDGFSRLKVRIKFKNPVFEYKKNLEGSGGYIPEAPRDGQAYVRKDGEWVLLSTFL
modifications: non-covalently bound heme cofactor is not carried by the letters
notes: No His6 tag; also called H-NOX+foldon; L144F H-NOX trimer without His6
On to B2, for which, in data set [2], the binding result is “binds”.
